Measurements: paper PMC11555707, “Histone deacetylase 7 activates 6-phosphogluconate dehydrogenase via an enzyme-independent mechanism that involves the N-terminal protein-protein interaction domain” (Biochemical Journal, 2024)

Biological target: the molecule itself
Experiment: cross-linking; lysates of transfected HEK293 cells (50 mM HEPES, 150 mM NaCl, 0.5% Triton X-100) incubated with 2 mM disuccinimidyl suberate (DSS) for 30 min at room temperature, quenched with 50 mM Tris-HCl; immunoblot with anti-Flag; 6PGD alone or with HDAC7, N-HDAC7, C-HDAC7 or SOX7

B1: 6-phosphogluconate dehydrogenase (6PGD), Flag-tagged (enzyme, mouse, UniProt Q9DCD0 1-483, looked up)
chain: MAQADIALIGLAVMGQNLILNMNDHGFVVCAFNRTVSKVDDFLANEAKGTKVVGAQSLKDMVSKLKKPRRVILLVKAGQAVDDFIEKLVPLLDTGDIIIDGGNSEYRDTTRRCRDLKAKGILFVGSGVSGGEEGARYGPSLMPGGNKEAWPHIKAIFQAIAAKVGTGEPCCDWVGDEGAGHFVKMVHNGIEYGDMQLICEAYHLMKDVLGMRHEEMAQAFEEWNKTELDSFLIEITANILKYRDTDGKELLPKIRDSAGQKGTGKWTAISALEYGMPVTLIGEAVFARCLSSLKEERVQASQKLKGPKVVQLEGSKKSFLEDIRKALYASKIISYAQGFMLLRQAATEFGWTLNYGGIALMWRGGCIIRSVFLGKIKDAFERNPELQNLLLDDFFKSAVDNCQDSWRRVISTGVQAGIPMPCFTTALSFYDGYRHEMLPANLIQAQRDYFGAHTYELLTKPGEFIHTNWTGHGGSVSSSSYNA
notes: mouse 6-phosphogluconate dehydrogenase (6PGD); A shorter ~40 kDa form (6PGD-s), also detected by anti-Flag, arises in the same cells; also called full-length 6PGD; source: HEK293, transfected (pCMV-based construct), in lysate
- stoichiometry N: 2
